Test results reported in PMC11847536 (The Journal of Biological Chemistry, 2025).

Legend:
[1] = molecular target: T1, PRMT5/biotinylated WDR77 complex (UniProt O14744 1-637; Q9BQA1 1-342, biotin (site not stated)); experiment: FRET or BRET; TR-FRET equilibrium binding: adaptors labeled by BODIPY-maleimide titrated into PRMT5/biotinylated WDR77 incubated with terbium-coupled streptavidin; details: both partners purified
T1 construct: PRMT5 (protein arginine methyltransferase 5); Held by terbium-coupled streptavidin in the TR-FRET assay; copies: 4 + 4

[2] = molecular target: T1, PRMT5/biotinylated WDR77 complex; experiment: FRET or BRET; TR-FRET displacement: unlabeled pICln, RIOK1 and ΔPBM constructs titrated to displace BODIPY-labeled pICln tracer from PRMT5/WDR77; details: both partners purified

T1 sequence (O14744 whole entry, chain 1 of 2): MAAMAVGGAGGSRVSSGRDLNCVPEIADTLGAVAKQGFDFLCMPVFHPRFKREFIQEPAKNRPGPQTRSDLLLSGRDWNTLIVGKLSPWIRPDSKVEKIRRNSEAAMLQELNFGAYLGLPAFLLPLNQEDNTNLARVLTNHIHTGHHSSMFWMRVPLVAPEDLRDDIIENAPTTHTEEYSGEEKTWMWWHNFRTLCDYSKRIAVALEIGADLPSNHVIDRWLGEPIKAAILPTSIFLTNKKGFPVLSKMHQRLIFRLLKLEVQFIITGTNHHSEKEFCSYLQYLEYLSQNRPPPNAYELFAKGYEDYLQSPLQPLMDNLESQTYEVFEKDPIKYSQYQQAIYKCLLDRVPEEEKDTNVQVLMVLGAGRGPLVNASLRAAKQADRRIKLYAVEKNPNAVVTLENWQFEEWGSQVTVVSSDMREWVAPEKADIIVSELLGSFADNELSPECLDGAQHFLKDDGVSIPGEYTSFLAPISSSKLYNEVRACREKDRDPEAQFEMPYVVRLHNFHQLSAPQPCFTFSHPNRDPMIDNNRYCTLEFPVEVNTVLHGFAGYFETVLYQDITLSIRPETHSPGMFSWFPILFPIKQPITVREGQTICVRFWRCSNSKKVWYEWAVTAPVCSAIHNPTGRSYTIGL
T1 sequence (Q9BQA1 whole entry, chain 2 of 2): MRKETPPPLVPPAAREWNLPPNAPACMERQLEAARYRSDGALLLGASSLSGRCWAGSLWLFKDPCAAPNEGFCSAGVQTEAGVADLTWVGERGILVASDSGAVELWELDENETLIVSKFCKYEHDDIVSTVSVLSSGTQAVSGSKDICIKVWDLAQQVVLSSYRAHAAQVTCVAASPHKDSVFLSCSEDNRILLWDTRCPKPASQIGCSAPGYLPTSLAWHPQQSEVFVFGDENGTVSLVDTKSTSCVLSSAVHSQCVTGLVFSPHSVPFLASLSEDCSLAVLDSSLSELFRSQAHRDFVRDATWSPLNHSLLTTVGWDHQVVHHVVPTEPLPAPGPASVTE

Binder | Kd [1] [nM] | IC50 [2] [nM]
BODIPY-labeled pICln (natural protein, UniProt P54105 1-237, looked up, BODIPY (labeled by BODIPY-maleimide; site not stated), pICln, PRMT5 substrate adaptor with a PBM peptide in its C-terminal region; also called BODIPY-pICln; source: LBSTR Escherichia coli (Kerafast, EC1002), purified) MSFLKSFPPPGPAEGLLRQQPDTEAVLNGKGLGTGTLYIAESRLSWLDGSGLGFSLEYPTISLHALSRDRSDCLGEHLYVMVNAKFEEESKEPVADEEEEDSDDDVEPITEFRFVPSDKSALEAMFTAMCECQALHPDPEDEDSDDYDGEEYDVEAHEQGQGDIPTFYTYEEGLSHLTAEGQATLERLEGMLSQSVSSQYNMAGVRTEDSIRDYEDGMEVDTTPTVAGQFEDADVDH | 32.5 ± 3.8 | –
pICln (unlabeled) (natural protein, UniProt P54105 1-237, looked up, pICln, PRMT5 substrate adaptor with a PBM peptide in its C-terminal region; Used free in the displacement assay and as a member of the 6S complex in the cryo-EM sample; only the PBM peptide is seen in the map; also called pICIn; source: LBSTR Escherichia coli (Kerafast, EC1002), purified) MSFLKSFPPPGPAEGLLRQQPDTEAVLNGKGLGTGTLYIAESRLSWLDGSGLGFSLEYPTISLHALSRDRSDCLGEHLYVMVNAKFEEESKEPVADEEEEDSDDDVEPITEFRFVPSDKSALEAMFTAMCECQALHPDPEDEDSDDYDGEEYDVEAHEQGQGDIPTFYTYEEGLSHLTAEGQATLERLEGMLSQSVSSQYNMAGVRTEDSIRDYEDGMEVDTTPTVAGQFEDADVDH | – | 69.5 ± 3.3
